# Where a SMILES comes first, the peptide text is derived from it. [ ]: non-standard residue; d: D form. The star is where a group is joined. X1 = O=C(CCCCCCCn1cnc2c(Br)c(Br)c(Br)c(Br)c21)*
# Columns and labels:
# Experiment in all cases: Kinase panel residual activity
# Type in all cases: biochemical
# Settings in all cases: compound at 1 micromolar
# PIM1 = PIM1 (Homo sapiens, UniProt P11309)
# CSK = CSK (Homo sapiens, UniProt P41240)
# CAMKKb = CAMKKb (Homo sapiens, UniProt Q96RR4)
# TTBK2 = TTBK2 (Homo sapiens, UniProt Q6IQ55)
# TTBK2, sequence (Q6IQ55 whole entry, species assumed): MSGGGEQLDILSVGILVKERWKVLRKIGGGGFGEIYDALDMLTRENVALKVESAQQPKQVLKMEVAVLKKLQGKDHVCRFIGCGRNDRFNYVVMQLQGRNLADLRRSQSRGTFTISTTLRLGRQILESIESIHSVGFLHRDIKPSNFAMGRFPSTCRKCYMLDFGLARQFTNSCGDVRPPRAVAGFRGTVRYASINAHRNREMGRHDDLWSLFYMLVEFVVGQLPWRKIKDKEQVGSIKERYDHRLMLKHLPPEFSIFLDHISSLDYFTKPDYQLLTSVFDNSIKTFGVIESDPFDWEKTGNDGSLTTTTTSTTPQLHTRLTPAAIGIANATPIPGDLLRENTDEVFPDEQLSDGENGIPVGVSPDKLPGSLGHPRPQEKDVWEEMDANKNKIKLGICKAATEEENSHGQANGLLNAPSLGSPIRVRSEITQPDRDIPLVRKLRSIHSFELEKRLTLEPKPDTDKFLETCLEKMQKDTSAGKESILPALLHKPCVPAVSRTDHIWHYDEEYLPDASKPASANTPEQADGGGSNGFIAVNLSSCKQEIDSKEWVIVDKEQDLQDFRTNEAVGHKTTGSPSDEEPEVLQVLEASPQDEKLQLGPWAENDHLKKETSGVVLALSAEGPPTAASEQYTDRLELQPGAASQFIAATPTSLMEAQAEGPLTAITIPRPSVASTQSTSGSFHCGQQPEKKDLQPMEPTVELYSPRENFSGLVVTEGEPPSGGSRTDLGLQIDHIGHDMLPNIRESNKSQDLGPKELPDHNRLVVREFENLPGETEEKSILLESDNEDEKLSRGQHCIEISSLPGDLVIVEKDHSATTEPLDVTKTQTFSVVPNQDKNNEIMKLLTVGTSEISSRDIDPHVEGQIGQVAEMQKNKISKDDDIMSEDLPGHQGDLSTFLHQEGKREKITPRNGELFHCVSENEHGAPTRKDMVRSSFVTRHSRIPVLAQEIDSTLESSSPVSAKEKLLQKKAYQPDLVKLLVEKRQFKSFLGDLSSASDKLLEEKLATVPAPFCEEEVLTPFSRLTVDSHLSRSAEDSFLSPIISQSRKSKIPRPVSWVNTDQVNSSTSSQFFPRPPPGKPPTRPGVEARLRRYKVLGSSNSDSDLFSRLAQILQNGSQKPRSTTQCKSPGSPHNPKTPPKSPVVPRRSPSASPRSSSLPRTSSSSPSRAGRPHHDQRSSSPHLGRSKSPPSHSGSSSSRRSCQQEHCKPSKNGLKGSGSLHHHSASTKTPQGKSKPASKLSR
# PLK1 = PLK1 (Homo sapiens, UniProt P53350)
# PLK1, sequence (P53350 whole entry, species assumed): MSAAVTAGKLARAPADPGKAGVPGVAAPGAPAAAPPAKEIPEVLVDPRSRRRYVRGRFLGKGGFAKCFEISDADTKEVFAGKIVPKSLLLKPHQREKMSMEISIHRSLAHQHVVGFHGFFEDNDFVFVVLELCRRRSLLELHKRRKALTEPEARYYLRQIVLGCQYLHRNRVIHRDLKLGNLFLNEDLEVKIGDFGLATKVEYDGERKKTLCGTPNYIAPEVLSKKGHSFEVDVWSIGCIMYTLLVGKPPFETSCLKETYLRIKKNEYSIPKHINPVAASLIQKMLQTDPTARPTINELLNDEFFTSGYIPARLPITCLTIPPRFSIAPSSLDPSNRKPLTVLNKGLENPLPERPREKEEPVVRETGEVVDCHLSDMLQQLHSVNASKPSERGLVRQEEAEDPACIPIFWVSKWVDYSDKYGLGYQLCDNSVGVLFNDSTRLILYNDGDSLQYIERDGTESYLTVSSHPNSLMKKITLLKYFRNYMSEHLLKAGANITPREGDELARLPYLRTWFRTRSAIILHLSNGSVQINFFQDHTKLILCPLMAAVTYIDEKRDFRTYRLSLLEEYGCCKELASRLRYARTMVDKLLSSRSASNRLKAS
# PKA = PKA (Homo sapiens, UniProt P17612)
# HIPK3 = HIPK3 (Homo sapiens, UniProt Q9H422)
# TIE2 = TIE2 (Homo sapiens, UniProt Q02763)
# JAK2 = JAK2 (Homo sapiens, UniProt O60674)
# MLK1 = MLK1 (Homo sapiens, UniProt P80192)
# DYRK1A = DYRK1A (Homo sapiens, UniProt Q13627)
# LKB1 = target: T1, LKB1 (Homo sapiens, UniProt Q15831)
# T1 sequence (Q15831 1-433): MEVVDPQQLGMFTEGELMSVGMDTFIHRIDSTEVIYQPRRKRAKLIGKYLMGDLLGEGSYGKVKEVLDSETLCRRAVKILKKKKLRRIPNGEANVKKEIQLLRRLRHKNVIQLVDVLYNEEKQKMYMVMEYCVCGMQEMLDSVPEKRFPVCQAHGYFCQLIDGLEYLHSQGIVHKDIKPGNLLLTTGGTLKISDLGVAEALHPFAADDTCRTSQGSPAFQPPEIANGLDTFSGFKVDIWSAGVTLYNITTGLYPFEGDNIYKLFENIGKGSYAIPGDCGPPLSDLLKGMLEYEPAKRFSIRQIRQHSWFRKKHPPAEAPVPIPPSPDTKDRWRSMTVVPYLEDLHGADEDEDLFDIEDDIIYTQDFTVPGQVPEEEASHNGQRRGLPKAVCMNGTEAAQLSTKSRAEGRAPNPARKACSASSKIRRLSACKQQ
# T1 sequence (Q7RTN6 1-431 partner): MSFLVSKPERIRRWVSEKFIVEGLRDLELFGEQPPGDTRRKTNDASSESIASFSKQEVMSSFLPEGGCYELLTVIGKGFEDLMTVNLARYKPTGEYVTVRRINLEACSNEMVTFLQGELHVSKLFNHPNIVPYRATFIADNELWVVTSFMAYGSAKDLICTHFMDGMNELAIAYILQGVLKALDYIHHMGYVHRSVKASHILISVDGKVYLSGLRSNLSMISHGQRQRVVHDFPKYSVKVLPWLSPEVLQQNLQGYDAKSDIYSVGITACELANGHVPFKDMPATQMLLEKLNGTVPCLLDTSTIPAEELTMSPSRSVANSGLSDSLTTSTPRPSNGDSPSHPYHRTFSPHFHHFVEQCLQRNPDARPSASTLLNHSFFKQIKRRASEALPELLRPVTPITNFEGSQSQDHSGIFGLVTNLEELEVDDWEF
# T1 sequence (Q9Y376 1-341 partner): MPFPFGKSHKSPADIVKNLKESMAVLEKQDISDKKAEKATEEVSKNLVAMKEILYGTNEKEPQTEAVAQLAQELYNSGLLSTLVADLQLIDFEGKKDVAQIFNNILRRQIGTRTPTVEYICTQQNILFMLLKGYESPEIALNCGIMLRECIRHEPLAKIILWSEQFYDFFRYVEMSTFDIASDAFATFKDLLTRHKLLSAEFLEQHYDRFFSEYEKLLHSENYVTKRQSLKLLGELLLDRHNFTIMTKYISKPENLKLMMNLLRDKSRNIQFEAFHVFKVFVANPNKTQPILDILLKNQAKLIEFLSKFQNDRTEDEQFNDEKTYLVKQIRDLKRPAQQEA
# JNK2 = JNK2 (Homo sapiens, UniProt P45984)
# JNK2, sequence (P45984 whole entry, species assumed): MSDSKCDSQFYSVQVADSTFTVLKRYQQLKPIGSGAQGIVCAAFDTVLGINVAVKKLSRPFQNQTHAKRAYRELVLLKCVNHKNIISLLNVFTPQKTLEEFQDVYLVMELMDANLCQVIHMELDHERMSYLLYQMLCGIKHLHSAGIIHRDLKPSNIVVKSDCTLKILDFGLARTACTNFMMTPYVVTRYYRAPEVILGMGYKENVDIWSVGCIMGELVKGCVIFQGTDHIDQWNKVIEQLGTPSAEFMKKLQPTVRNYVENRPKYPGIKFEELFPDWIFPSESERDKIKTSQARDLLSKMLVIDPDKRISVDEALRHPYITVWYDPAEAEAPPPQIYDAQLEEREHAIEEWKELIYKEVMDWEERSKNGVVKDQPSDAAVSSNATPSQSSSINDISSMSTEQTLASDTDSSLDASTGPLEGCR
# PKCγ = PKCγ (Homo sapiens, UniProt P05129)
# FGF-R1 = FGF-R1 (Homo sapiens, UniProt P11362)
# HER4 = HER4 (Homo sapiens, UniProt Q15303)
# IRAK4 = target: T2, IRAK4 (Homo sapiens, UniProt Q9NWZ3)
# T2 sequence (Q9NWZ3 1-460): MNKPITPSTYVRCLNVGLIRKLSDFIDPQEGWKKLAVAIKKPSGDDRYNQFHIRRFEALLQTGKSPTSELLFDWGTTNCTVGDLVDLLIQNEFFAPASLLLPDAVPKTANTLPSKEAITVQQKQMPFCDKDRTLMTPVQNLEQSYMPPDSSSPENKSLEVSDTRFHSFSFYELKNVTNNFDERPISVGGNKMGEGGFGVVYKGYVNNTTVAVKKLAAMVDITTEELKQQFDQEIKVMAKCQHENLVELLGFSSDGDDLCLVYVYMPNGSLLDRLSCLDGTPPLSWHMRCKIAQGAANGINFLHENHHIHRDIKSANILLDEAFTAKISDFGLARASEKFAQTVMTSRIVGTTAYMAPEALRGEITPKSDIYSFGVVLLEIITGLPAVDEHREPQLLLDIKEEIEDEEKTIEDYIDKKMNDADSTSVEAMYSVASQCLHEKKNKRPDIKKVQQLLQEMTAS
# CK1γ2 = CK1γ2 (Homo sapiens, UniProt P78368)
# CK1γ2, sequence (P78368 whole entry): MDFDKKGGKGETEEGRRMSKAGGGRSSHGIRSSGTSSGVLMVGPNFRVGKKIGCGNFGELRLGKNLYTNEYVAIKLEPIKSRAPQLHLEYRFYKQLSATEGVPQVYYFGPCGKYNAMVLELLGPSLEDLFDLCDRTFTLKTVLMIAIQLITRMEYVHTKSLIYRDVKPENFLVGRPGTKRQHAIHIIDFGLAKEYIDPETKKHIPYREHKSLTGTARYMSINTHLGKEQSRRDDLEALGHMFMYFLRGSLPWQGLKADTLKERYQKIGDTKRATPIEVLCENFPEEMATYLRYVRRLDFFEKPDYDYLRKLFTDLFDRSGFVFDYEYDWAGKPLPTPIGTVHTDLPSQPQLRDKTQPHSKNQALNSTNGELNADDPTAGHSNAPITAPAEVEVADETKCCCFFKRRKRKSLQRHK
# PIM1, sequence (P11309 whole entry, species assumed): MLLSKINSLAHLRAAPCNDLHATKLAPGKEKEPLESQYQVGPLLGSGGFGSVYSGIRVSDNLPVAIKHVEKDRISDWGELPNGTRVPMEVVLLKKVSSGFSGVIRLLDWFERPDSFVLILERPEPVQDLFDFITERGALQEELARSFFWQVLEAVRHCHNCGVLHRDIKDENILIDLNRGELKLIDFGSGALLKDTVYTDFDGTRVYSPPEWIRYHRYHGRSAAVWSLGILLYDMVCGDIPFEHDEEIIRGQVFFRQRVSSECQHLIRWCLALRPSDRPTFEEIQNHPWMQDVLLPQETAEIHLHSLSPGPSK
# CSK, sequence (P41240 whole entry, species assumed): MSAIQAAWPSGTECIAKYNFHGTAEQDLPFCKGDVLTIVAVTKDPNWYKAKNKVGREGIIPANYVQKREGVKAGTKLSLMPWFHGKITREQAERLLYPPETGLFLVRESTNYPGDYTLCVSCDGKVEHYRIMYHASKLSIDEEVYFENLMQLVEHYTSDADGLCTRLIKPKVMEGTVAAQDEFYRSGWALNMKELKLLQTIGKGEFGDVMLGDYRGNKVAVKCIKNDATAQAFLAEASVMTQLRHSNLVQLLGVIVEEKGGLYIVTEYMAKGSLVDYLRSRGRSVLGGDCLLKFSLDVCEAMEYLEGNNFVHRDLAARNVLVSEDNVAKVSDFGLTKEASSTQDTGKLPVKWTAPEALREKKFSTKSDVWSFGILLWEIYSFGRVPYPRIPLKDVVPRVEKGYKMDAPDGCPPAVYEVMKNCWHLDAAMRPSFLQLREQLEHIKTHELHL
# CAMKKb, sequence (Q96RR4 whole entry, species assumed): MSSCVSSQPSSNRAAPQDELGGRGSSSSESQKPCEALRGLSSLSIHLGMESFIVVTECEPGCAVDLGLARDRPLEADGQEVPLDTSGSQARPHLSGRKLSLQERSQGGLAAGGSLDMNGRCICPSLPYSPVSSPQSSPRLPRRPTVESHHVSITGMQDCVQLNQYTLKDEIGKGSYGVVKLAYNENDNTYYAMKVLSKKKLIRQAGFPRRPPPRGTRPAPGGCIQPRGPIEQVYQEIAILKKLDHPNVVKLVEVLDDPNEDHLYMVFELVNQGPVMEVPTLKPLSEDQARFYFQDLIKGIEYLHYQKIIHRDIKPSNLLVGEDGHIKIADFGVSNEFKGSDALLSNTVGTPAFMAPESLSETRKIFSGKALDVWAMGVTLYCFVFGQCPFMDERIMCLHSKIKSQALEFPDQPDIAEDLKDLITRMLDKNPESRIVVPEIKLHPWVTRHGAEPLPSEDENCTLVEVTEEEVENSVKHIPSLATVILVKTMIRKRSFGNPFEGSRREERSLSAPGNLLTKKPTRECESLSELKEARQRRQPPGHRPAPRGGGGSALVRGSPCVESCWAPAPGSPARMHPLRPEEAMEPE
smiles,measurement,setting,value
NCCCC[C@H](NC(=O)[C@H](CC(=O)O)NC(=O)[C@H](CC(=O)O)NC(=O)[C@H](CC(=O)O)NC(=O)[C@H](CC(=O)O)NC(=O)[C@H](CC(=O)O)NC(=O)[C@@H](CC(=O)O)NC(=O)CCCCCCCn1cnc2c(Br)c(Br)c(Br)c(Br)c21)C(=O)O [TBBI-OcA-(D-Asp)-(L-Asp)5-(L-Lys)-OH] (X1-[dD]DDDDDK-OH),remaining activity at 1 µM,PIM1,62%
same,remaining activity at 1 µM,CSK,92%
same,remaining activity at 1 µM,CAMKKb,91%
same,remaining activity at 1 µM,TTBK2,95%
same,remaining activity at 1 µM,PLK1,18%
same,remaining activity at 1 µM,PKA,100%
same,remaining activity at 1 µM,HIPK3,75%
same,remaining activity at 1 µM,TIE2,105%
same,remaining activity at 1 µM,JAK2,66%
same,remaining activity at 1 µM,MLK1,112%
same,remaining activity at 1 µM,DYRK1A,36%
same,remaining activity at 1 µM,LKB1,96%
same,remaining activity at 1 µM,JNK2,105%
same,remaining activity at 1 µM,PKCγ,106%
same,remaining activity at 1 µM,FGF-R1,110%
same,remaining activity at 1 µM,HER4,103%
same,remaining activity at 1 µM,IRAK4,118%
same,remaining activity at 1 µM,CK1γ2,71%

# Source: patent US9176064B2, “Bisubstrate fluorescent probes for protein kinase CK2” (University of Tartu, priority 2012, dated 2015)
